Test results: publication PMC9482650, “Quantitative fragmentomics allow affinity mapping of interactomes” (Nature Communications, 2022)

T1: DFNB31_2, Q9P202
T1 sequence (Q9P202 274-371, limits assumed, looked up): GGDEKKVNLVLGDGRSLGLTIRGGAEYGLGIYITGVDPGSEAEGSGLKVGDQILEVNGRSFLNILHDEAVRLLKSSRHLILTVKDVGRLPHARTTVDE

T2: DFNB31_3, Q9P202
T2 sequence (Q9P202 811-907, limits assumed, looked up): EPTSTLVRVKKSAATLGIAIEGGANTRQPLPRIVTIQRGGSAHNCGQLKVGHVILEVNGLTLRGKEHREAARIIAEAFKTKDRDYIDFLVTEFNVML

T3: DLG3_3, Q92796
T3 sequence (Q92796 374-475, limits assumed, looked up): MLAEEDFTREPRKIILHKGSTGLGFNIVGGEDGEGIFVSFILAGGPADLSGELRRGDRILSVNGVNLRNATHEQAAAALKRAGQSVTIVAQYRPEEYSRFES

T4: GRIP1_4, Q9Y3R0
T4 sequence (Q9Y3R0 467-571, limits assumed, looked up): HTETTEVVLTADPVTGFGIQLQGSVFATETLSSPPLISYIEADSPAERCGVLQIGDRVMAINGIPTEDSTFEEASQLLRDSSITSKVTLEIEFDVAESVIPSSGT

T5: GRIP1_5, Q9Y3R0
T5 sequence (Q9Y3R0 568-668, limits assumed, looked up): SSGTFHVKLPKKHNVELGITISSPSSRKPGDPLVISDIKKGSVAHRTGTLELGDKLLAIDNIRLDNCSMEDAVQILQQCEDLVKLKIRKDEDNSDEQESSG

T6: LIN7B, Q9HAP6
T6 sequence (Q9HAP6 88-185, limits assumed, looked up): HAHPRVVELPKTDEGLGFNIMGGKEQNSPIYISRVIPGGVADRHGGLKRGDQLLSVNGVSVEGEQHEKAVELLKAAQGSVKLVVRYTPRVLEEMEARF

T7: LRRC7, Q96NW7
T7 sequence (Q96NW7 1440-1537, limits assumed, looked up): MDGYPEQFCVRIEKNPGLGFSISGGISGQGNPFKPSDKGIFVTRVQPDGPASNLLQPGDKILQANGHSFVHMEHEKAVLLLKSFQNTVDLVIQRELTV

T8: MPDZ_12, O75970
T8 sequence (O75970 1857-1958, limits assumed, looked up): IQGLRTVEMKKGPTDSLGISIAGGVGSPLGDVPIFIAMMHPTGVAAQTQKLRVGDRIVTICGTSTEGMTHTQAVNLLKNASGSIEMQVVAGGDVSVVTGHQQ

T9: MPP2, Q14168
T9 sequence (Q14168 180-250, limits assumed, looked up): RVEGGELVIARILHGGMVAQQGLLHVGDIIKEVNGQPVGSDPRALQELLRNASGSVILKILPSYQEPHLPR

T10: NHERF3_4, Q5T2W1
T10 sequence (Q5T2W1 373-468, limits assumed, looked up): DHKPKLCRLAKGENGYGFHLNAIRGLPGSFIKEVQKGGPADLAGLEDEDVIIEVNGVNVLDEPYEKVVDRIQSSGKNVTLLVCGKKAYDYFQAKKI

T11: PARD3B_1, Q8TEW8
T11 sequence (Q8TEW8 196-299, limits assumed, looked up): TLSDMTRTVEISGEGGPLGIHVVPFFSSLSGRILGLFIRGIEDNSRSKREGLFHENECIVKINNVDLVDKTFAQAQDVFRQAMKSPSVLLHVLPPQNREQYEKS

T12: PDZD2_2, O15018
T12 sequence (O15018 329-429, limits assumed, looked up): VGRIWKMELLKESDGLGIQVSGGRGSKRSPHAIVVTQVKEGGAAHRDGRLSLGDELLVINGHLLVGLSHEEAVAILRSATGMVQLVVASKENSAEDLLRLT

T13: RAPGEF6, Q8TEU7
T13 sequence (Q8TEU7 525-625, limits assumed, looked up): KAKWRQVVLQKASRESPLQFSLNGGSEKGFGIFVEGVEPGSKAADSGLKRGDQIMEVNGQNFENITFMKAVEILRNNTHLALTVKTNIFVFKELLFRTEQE


What was measured:
Experiment in all cases: holdup assay
Set-up in all cases: key: below the threshold = too weak to quantify, mostly under pKd 3.1 to 4
Details in all cases: plain residues with an end cap or a label only (N-terminal biotin on a linker: ado-ado)
DFNB31_2, Q9P202 = biological target: T1, DFNB31_2, Q9P202
DFNB31_3, Q9P202 = biological target: T2, DFNB31_3, Q9P202
DLG1_1, Q12959 = biological target: DLG1_1, Q12959
DLG3_3, Q92796 = biological target: T3, DLG3_3, Q92796
GRIP1_4, Q9Y3R0 = biological target: T4, GRIP1_4, Q9Y3R0
GRIP1_5, Q9Y3R0 = biological target: T5, GRIP1_5, Q9Y3R0
GRIP2_5, Q9C0E4 = biological target: GRIP2_5, Q9C0E4
Inadl_2, Q8NI35 = biological target: Inadl_2, Q8NI35
LIN7B, Q9HAP6 = biological target: T6, LIN7B, Q9HAP6
LNX1_3, Q8TBB1 = biological target: LNX1_3, Q8TBB1
LRRC7, Q96NW7 = biological target: T7, LRRC7, Q96NW7
MAST2, Q6P0Q8 = biological target: MAST2, Q6P0Q8
MPDZ_12, O75970 = biological target: T8, MPDZ_12, O75970
MPP2, Q14168 = biological target: T9, MPP2, Q14168
NHERF2_2, Q15599 = biological target: NHERF2_2, Q15599
NHERF3_4, Q5T2W1 = biological target: T10, NHERF3_4, Q5T2W1
PARD3B_1, Q8TEW8 = biological target: T11, PARD3B_1, Q8TEW8
PDZD2_2, O15018 = biological target: T12, PDZD2_2, O15018
PDZRN4_1, Q6ZMN7 = biological target: PDZRN4_1, Q6ZMN7
RAPGEF6, Q8TEU7 = biological target: T13, RAPGEF6, Q8TEU7
SCRIB_1, Q14160 = biological target: SCRIB_1, Q14160
SCRIB_3, Q14160 = biological target: SCRIB_3, Q14160
SNX27, Q96L92 = biological target: SNX27, Q96L92
TJP2_1, Q9UDY2 = biological target: TJP2_1, Q9UDY2
Chain of TJP2_1, Q9UDY2 (Q9UDY2 24-128): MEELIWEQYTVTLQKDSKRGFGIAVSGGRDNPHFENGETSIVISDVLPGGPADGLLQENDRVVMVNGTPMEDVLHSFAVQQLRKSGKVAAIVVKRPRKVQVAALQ

Chain of PDZRN4_1, Q6ZMN7 (Q6ZMN7 213-318): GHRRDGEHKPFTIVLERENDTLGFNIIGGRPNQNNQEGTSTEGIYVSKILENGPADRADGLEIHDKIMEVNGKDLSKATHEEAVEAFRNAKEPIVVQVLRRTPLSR
Chain of MAST2, Q6P0Q8 (Q6P0Q8 1099-1202): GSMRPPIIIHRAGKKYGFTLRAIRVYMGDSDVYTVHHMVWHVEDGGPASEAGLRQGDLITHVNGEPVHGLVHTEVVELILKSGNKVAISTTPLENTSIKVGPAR
Chain of NHERF2_2, Q15599 (Q15599 142-238): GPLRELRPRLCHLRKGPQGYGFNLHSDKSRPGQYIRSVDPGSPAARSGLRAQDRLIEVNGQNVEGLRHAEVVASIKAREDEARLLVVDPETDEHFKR
Chain of SCRIB_1, Q14160 (Q14160 718-814): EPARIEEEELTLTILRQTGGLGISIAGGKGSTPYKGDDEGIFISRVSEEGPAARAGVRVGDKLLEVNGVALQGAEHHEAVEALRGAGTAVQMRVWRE
Chain of LNX1_3, Q8TBB1 (Q8TBB1 500-596): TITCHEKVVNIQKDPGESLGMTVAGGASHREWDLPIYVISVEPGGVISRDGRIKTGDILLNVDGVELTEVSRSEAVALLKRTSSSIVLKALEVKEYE
Chain of Inadl_2, Q8NI35 (Q8NI35 238-335): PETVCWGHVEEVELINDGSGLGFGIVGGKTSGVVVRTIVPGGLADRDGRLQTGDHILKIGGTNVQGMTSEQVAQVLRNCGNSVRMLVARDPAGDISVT
Chain of SCRIB_3, Q14160 (Q14160 999-1103): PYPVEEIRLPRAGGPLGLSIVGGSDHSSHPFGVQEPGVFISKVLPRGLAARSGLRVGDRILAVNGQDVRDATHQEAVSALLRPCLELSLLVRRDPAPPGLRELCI
Chain of GRIP2_5, Q9C0E4 (Q9C0E4 544-642): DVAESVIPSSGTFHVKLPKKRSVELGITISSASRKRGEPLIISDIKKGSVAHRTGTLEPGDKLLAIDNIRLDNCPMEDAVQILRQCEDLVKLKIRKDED

| Binder | pKd (DFNB31_2, Q9P202) | pKd (DFNB31_3, Q9P202) | pKd (DLG1_1, Q12959) | pKd (DLG3_3, Q92796) | pKd (GRIP1_4, Q9Y3R0) | pKd (GRIP1_5, Q9Y3R0) | pKd (GRIP2_5, Q9C0E4) | pKd (Inadl_2, Q8NI35) | pKd (LIN7B, Q9HAP6) | pKd (LNX1_3, Q8TBB1) | pKd (LRRC7, Q96NW7) | pKd (MAST2, Q6P0Q8) | pKd (MPDZ_12, O75970) | pKd (MPP2, Q14168) | pKd (NHERF2_2, Q15599) | pKd (NHERF3_4, Q5T2W1) | pKd (PARD3B_1, Q8TEW8) | pKd (PDZD2_2, O15018) | pKd (PDZRN4_1, Q6ZMN7) | pKd (RAPGEF6, Q8TEU7) | also measured |
| --- | --- | --- | --- | --- | --- | --- | --- | --- | --- | --- | --- | --- | --- | --- | --- | --- | --- | --- | --- | --- | --- |
| LETREPTNTL [GRIP1, Q9Y3R0] | below the threshold | 3.96 | below the threshold | below the threshold | below the threshold | below the threshold | below the threshold | below the threshold | below the threshold | below the threshold | below the threshold | 3.92 | below the threshold | below the threshold | below the threshold | below the threshold | 3.84 | below the threshold | below the threshold | below the threshold | pKd (SCRIB_1, Q14160): below the threshold; pKd (SCRIB_3, Q14160): below the threshold; pKd (SNX27, Q96L92): below the threshold; pKd (TJP2_1, Q9UDY2): below the threshold |
| TMQMSLKDLL [GLA, P06280] | below the threshold | 4.07 | below the threshold | 3.65 | below the threshold | 3.51 | 3.51 | below the threshold | 3.65 | below the threshold | below the threshold | 4.19 | below the threshold | below the threshold | 3.62 | below the threshold | 3.93 | below the threshold | below the threshold | 3.69 | pKd (SCRIB_1, Q14160): below the threshold; pKd (SCRIB_3, Q14160): below the threshold; pKd (SNX27, Q96L92): below the threshold; pKd (TJP2_1, Q9UDY2): below the threshold |
| RALRASESGI [ADGRE5, P48960] | below the threshold | 3.72 | below the threshold | below the threshold | below the threshold | below the threshold | below the threshold | below the threshold | 3.62 | below the threshold | below the threshold | 3.82 | below the threshold | below the threshold | below the threshold | below the threshold | below the threshold | below the threshold | below the threshold | below the threshold | pKd (SCRIB_1, Q14160): below the threshold; pKd (SCRIB_3, Q14160): below the threshold; pKd (SNX27, Q96L92): below the threshold; pKd (TJP2_1, Q9UDY2): below the threshold |
